“And” between values parts separate entries of the source, which are not always exact repeats. Equal values may be shown once. Read-outs that look alike come from different tables or passages of the source.
What was measured:
[1] = biological target: T1, peptide-conjugate (Example 1; lactosyl-Ser-…-Cys coupled to KLH) (influenza virus)
[2] = biological target: hemagglutinin of H7N7 A/Netherlands/219/2003 (influenza virus H7N7 A/Netherlands/219/2003); assay: dot blot, 4M urea; rHA (Prot. Sc.), dot 9
[3] = biological target: hemagglutinin of H9N2 A/Hong Kong/1073/1999 (influenza virus H9N2 A/Hong Kong/1073/1999); assay: dot blot, 4M urea; rHA (Prot. Sc.), dot 10
[4] = biological target: hemagglutinin of H5N1 A/Indonesia/05/2005 (influenza virus H5N1 A/Indonesia/05/2005)
[5] = biological target: Non-related protein; assay: dot blot, 4M urea; negative control, dot 16
[6] = biological target: hemagglutinin of H5N1 A/Indonesia/05/2005 (influenza virus H5N1 A/Indonesia/05/2005); assay: dot blot, 4M urea; rHA (Prot. Sc.), dot 7
[7] = biological target: hemagglutinin of H5N1 A/Vietnam/1203/2004 (influenza virus H5N1 A/Vietnam/1203/2004); assay: dot blot, 4M urea; rHA (Prot. Sc.), dot 8
[8] = biological target: peptide of Example 1 (influenza virus); assay: SPR, mAb captured on anti-mouse Fc, peptide injected; average
[9] = biological target: peptide of Example 1 (influenza virus); assay: SPR, mAb captured on anti-mouse Fc, peptide injected
[10] = biological target: T1, peptide-conjugate (Example 1; …); remark: listed apart in the source

| Binder | signal intensity (arbitrary fluorescent units) [2] | signal intensity (arbitrary fluorescent units) [3] | signal intensity (arbitrary fluorescent units) [4] | signal intensity (arbitrary fluorescent units) [5] | signal intensity (arbitrary fluorescent units) [6] | signal intensity (arbitrary fluorescent units) [7] | Kd [8] | other results |
| --- | --- | --- | --- | --- | --- | --- | --- | --- |
| F211-9D1 (antibody, V domains shown) VL: DIVMSQSPSSLAVSVGEKVTMSCKSSQSLLNSRNQKNHLAWYQQKPGQSPKLLIYWASTRESGVPDRFSGDGSGTDFTLTISSVKAEDLAVYYCQQYYTYRTFGGGTKLEIK VH: DVQLQESGPGLVKPSQSLSLTCSVTGYSITSDYYWNWIRQFPGNKLEWMAYIGYDGSKNYNPSLKNRISITRDTSKNQFFLKLNSVTTDDTATYYCTRDRANWDDYFDYWGQGTTLTVSS |  |  |  |  |  |  |  | EC50 (read off the curve) [1]: 0.03 µg/mL |
| F211-9D1 (antibody, V domains shown) VH: DVQLQESGPGLVKPSQSLSLTCSVTGYSITSDYYWNWIRQFPGNKLEWMAYIGYDGSKNYNPSLKNRISITRDTSKNQFFLKLNSVTTDDTATYYCTRDRANWDDYFDYWGQGTTLTVSS VL: DIVMSQSPSSLAVSVGEKVTMSCKSSQSLLNSRNQKNHLAWYQQKPGQSPKLLIYWASTRESGVPDRFSGDGSGTDFTLTISSVKAEDLAVYYCQQYYTYRTFGGGTKLEIK | 425 | 3760 | 46700 | 47 | 10100 | 46800 |  |  |
| CHO-11H12 (antibody, V domains shown) VL: DIVMSQSPSSLAVSVGEKVTMSCKSSQSLLNSRNQKNHLAWYQQKPGQSPKLLIYWASTRESGVPDRFTGDGSGTDFTLTISSVKAEDLAVYYCQQYYTYRTFGGGTKLEIK VH: DVQLQESGPGLVKPSQSLSLTCSVTGYSITSDYYWNWIRQFPGNKLEWMAYIGYDGTKNYNPSLKNRISITRDTSKNQFFLKLNSVTTDDTATYYCTRDRANWDDYFDYWGQGTTLTVSS |  |  |  |  |  |  | 0.639 nM |  |
| F211-11H12 (antibody, V domains shown) VL: DIVMSQSPSSLAVSVGEKVTMSCKSSQSLLNSRNQKNHLAWYQQKPGQSPKLLIYWASTRESGVPDRFTGDGSGTDFTLTISSVKAEDLAVYYCQQYYTYRTFGGGTKLEIK VH: DVQLQESGPGLVKPSQSLSLTCSVTGYSITSDYYWNWIRQFPGNKLEWMAYIGYDGTKNYNPSLKNRISITRDTSKNQFFLKLNSVTTDDTATYYCTRDRANWDDYFDYWGQGTTLTVSS |  |  |  |  |  |  | 0.465 nM | Kd [9]: 0.465 nM |
| F211-11H12 (antibody, V domains shown) VH: DVQLQESGPGLVKPSQSLSLTCSVTGYSITSDYYWNWIRQFPGNKLEWMAYIGYDGTKNYNPSLKNRISITRDTSKNQFFLKLNSVTTDDTATYYCTRDRANWDDYFDYWGQGTTLTVSS VL: DIVMSQSPSSLAVSVGEKVTMSCKSSQSLLNSRNQKNHLAWYQQKPGQSPKLLIYWASTRESGVPDRFTGDGSGTDFTLTISSVKAEDLAVYYCQQYYTYRTFGGGTKLEIK | 488 | 3570 | 43100 | 38 | 22200 | 45900 |  |  |
| F211-10A9 (antibody, V domains shown) VL: DIVMTQSPSSLAMSVGQKVTMSCKSSQSLLNSDTQKNFLAWYQQKPGQSPKILVYFASTKESGVPDRFIGSGSGTDFTLTITSVQAEDLADYFCQQYYSIPLTFGAGTKLELK VH: QIQLQQSGPELVKPGAPVKISCKASGYTFTDYYIHWVNQRPGQGLEWIGYIYPGNGHTVYNQKFKVRATLTADNPSSTAYLQLNSLTSEDSGVYFCAYDLFNYWGQGTLVTVSA |  |  |  |  |  |  | 0.338 nM | EC50 (read off the curve) [10]: 0.05 µg/mL and 0.03 µg/mL; Kd [9]: 0.338 nM |
| CHO-10A9 (antibody, V domains shown) VL: DIVMTQSPSSLAMSVGQKVTMSCKSSQSLLNSDTQKNFLAWYQQKPGQSPKILVYFASTKESGVPDRFIGSGSGTDFTLTITSVQAEDLADYFCQQYYSIPLTFGAGTKLELK VH: QIQLQQSGPELVKPGAPVKISCKASGYTFTDYYIHWVNQRPGQGLEWIGYIYPGNGHTVYNQKFKVRATLTADNPSSTAYLQLNSLTSEDSGVYFCAYDLFNYWGQGTLVTVSA |  |  |  |  |  |  | 0.365 nM |  |
| F211-10A9 (antibody, V domains shown) VH: QIQLQQSGPELVKPGAPVKISCKASGYTFTDYYIHWVNQRPGQGLEWIGYIYPGNGHTVYNQKFKVRATLTADNPSSTAYLQLNSLTSEDSGVYFCAYDLFNYWGQGTLVTVSA VL: DIVMTQSPSSLAMSVGQKVTMSCKSSQSLLNSDTQKNFLAWYQQKPGQSPKILVYFASTKESGVPDRFIGSGSGTDFTLTITSVQAEDLADYFCQQYYSIPLTFGAGTKLELK | 42000 | 2970 | 28600 | 34 | 165 | 8260 |  |  |

Reference: patent US20190352376A1
